B1: Ct222 (natural protein)
chain: MRCCCVRTNYEEVRSSSTGDQVVSAVKERKCDSSLCRKIASVAFTLIGALLLGIGMVLSFALLGSSAGLIGVGVILSALGAVCLSLGLCKLFLRMKRVSLDKAEQKMLEDQVELLRQENQELKALVYSN
notes: Ct222, putative inclusion membrane protein of C. trachomatis; also called Ct222 FL; source: bacterial two-hybrid (BACTH) fusion, co-expressed in E. coli DHT1; not shown: T25 (as bait) or T18 (as prey) fragment of B. pertussis adenylate cyclase, N-terminal, kept
B2: Ct850 (natural protein)
chain: MGFGTVRGKGKAVKSFFLRPLQNLEVGLFSLPIVLLLGEIGCVSSISSVSLVAVLSIVGVFVALVSFFRSWGYGLSVVGAIFFGLALCNNFPVSVFWGGLLTVSFIISYGILLLSVSLVEGHIKEKAVSLSELTASHNSLQDSYNREVQERKEKELLAQSKITALEQELSVSHEQLQEVSRKYTHASEDLQILIDQRDSWLKDYMTLHQEYVRVVAGDEENVIFPWKVFQGNSEKDSGYQQRVQDAEHKIAHLEKLCEEENSGKRYAEECLDKALADLLESTRLREILEKEIFQKDEEIASLKQEIAAEKLLSSSVSDDRAAYKGKYLQLREQFTVKDSFLKKARRERFLAQEQLLVLKRAKEEEASNLSTTDSFSIIQNLLLQIEALEEEVTYLEELVLHNQNR
notes: Ct850, putative inclusion membrane protein of C. trachomatis; source: bacterial two-hybrid (BACTH) fusion, co-expressed in E. coli DHT1; not shown: T25 (as bait) or T18 (as prey) fragment of B. pertussis adenylate cyclase, N-terminal, kept

Assays:
Assay in all cases: two-hybrid
[1] = target: B2; details: partners not purified
[2] = target: the molecule itself
[3] = target: B1; details: partners not purified

What does the source list for B1?
β-galactosidase activity [1]: 92 relative units (RU); β-galactosidase activity [2]: 317 relative units (RU)

With B2 as the binder, how does the β-galactosidase activity [3] read?
Its β-galactosidase activity is 151 relative units (RU).
